This series concerns the molecule itself. Briefly: light scattering; GTP-dependent oligomerisation of recombinant Irga6 monitored by conventional light scattering, as described earlier (ref. 16).

B1: recombinant wt Irga6 (bacterially expressed, from pGEX-4T-2-Irga6) (natural protein)
chain: MGQLFSSPKSDENNDLPSSFTGYFKKFNTGRKIISQEILNLIELRMRKGNIQLTNSAISDALKEIDSSVLNVAVTGETGSGKSSFINTLRGIGNEEEGAAKTGVVEVTMERHPYKHPNIPNVVFWDLPGIGSTNFPPNTYLEKMKFYEYDFFIIISATRFKKNDIDIAKAISMMKKEFYFVRTKVDSDITNEADGKPQTFDKEKVLQDIRLNCVNTFRENGIAEPPIFLLSNKNVCHYDFPVLMDKLISDLPIYKRHNFMVSLPNITDSVIEKKRQFLKQRIWLEGFAADLVNIIPSLTFLLDSDLETLKKSMKFYRTVFGVDETSLQRLARDWEIEVDQVEAMIKSPAVFKPTDEETIQERLSRYIQEFCLANGYLLPKNSFLKEIFYLKYYFLDMVTEDAKTLLKEICLRN
notes: Irga6, mouse immunity-related GTPase (IRG) protein; Expressed as N-terminal GST fusion; also called recombinant Irga6
Regarding B1, the binding result is on record as “binds”.

Source of the values: article PMC3006384, “Phosphorylation of Mouse Immunity-Related GTPase (IRG) Resistance Proteins Is an Evasion Strategy for Virulent Toxoplasma gondii” (PLoS Biology, 2010).
